Positions count from the first letter of the chain named.
Columns and labels:
ACAD9WT (res. 38-621) = biological target: T1, ACAD9WT (res. 38-621) (human, UniProt Q9H845 38-621); test: ITC
T1 sequence: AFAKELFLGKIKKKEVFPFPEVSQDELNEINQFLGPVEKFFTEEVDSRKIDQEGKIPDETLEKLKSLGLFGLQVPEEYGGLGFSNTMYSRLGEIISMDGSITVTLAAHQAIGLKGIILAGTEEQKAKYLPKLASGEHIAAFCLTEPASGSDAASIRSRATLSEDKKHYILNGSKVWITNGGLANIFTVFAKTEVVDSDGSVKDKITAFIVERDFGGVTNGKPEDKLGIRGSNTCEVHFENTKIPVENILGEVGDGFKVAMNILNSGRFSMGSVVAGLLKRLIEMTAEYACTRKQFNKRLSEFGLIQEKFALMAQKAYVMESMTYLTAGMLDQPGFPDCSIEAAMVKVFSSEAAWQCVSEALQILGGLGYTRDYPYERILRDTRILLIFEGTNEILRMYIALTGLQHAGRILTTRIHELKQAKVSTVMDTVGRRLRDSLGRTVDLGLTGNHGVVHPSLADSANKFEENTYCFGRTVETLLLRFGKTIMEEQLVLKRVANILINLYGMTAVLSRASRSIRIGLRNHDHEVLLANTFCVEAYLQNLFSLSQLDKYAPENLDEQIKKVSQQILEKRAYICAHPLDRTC

ACAD9_(S191A) = biological target: T2, ACAD9_(S191A) (human, UniProt Q9H845 38-621, S191A); test: ITC
T2 sequence: T1 sequence with S154A

ACAD9_(A184S) = biological target: T3, ACAD9_(A184S) (human, UniProt Q9H845 38-621, A184S); test: dynamic light scattering
T3 sequence: T1 sequence with A147S

ACAD9_(SR194TS) = biological target: T4, ACAD9_(SR194TS) (human, UniProt Q9H845 38-621, SR194TS); test: dynamic light scattering
T4 sequence: T1 sequence with S157T, R158S

B1: ECSIT_(CTER) (residues 221-431) (domain or fragment)
chain: QDPVELAMFGLRHMEPDLSARVTIYQVPLPKDSTGAADPPQPHIVGIQSPDQQAALARHNPARPVFVEGPFSLWLRNKCVYYHILRADLLPPEEREVEETPEEWNLYYPMQLDLEYVRSGWDNYEFDINEVEEGPVFAMCMAGAHDQATMAKWIQGLQETNPTLAQIPVVFRLAGSTRELQTSSAGLEEPPLPEDHQEEDDNLQRQQQGQS
- Kd (ACAD9WT (res. 38-621)): 1450 nM
- Kd (ACAD9_(S191A)): 3930 nM
- binding result (ACAD9_(A184S)): binds
- binding result (ACAD9_(SR194TS)): binds
